According to US20190248902A1 (published 2019):
Substitutions are numbered along the chain they refer to.

Legend:
[1] = biological target: T1, human ASGR-1 carbohydrate binding domain (CBD) (148-291) (human, UniProt P07306 148-291); assay: X-ray crystal structure of the complex, 2.6 A
T1 construct: also called ASGR-1 CBD; ASGR-1 CRD
T1 sequence: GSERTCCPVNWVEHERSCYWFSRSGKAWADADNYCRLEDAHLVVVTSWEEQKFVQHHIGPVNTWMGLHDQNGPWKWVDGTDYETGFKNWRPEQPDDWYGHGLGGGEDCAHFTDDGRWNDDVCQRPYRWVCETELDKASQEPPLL
Text: 2. The dataset was collected from a single crystal on beamline ID22 at the Argonne National Laboratory and processed with XDS/CCP4;
4. The 194C10 Fab/ASGR-1 CBD complex structure was solved by molecular replacement with the program Phaser; and […]

[2] = biological target: T1, human ASGR-1 carbohydrate binding …; assay: X-ray crystal structure, legend of FIG. 25
[3] = biological target: T2, human ASGR-1 (full length, expressed on cells) (human, UniProt P07306 1-291); assay: flow cytometry; biotinylated ligand on CHO-S cells stably expressing ASGR-1, detected with streptavidin-AF647
T2 construct: single point mutants were made in the CBD in the context of full-length ASGR-1; also called hASGR-1; huASGR-1
T2 sequence: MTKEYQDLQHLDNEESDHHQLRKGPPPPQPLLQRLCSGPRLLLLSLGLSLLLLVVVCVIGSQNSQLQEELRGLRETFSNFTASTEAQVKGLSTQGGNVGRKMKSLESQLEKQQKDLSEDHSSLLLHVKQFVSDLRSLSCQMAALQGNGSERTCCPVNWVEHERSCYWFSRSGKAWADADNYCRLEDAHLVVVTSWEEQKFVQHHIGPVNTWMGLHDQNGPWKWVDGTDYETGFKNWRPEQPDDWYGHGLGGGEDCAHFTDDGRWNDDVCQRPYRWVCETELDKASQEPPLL

[4] = biological target: T1, human ASGR-1 carbohydrate binding …; assay: X-ray crystal structure of the complex, 2.1 A
Soluble ASGR-1 = biological target: T3, Soluble ASGR-1 (human, UniProt P07306 62-291, biotinylated); assay: limited antigen binding assay; biotinylated soluble ASGR-1 coated at 2.5 ng/mL on LumAvidin beads, FACS
T3 construct: Soluble recombinant protein; also called recombinant, soluble ASGR-1 biotinylated protein
T3 sequence: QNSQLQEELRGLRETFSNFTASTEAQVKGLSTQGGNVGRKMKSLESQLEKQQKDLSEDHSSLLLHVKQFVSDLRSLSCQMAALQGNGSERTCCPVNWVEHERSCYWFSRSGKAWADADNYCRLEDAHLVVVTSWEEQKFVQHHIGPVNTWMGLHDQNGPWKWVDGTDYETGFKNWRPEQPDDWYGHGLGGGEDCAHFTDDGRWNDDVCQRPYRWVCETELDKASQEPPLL
Description: To assess antibody and antigen interaction strength (relative binding affinity), ASGR-1 specific, ligand competing antibody hybridoma supernatants were tested in a limiting antigen binding assay. Titrated amounts of recombinant, soluble ASGR-1 biotinylated protein was incubated with streptavidin-coated LumAvidin Beads® for 45 minutes in the dark at room temperature and washed twice. Beads were resuspeneded in FACS buffer containing Stabilguard® and 0.05% Sodium Azide. Antigen-bound beads were then incubated with normalized hybridoma supernatant sample or controls for 18 hours in the dark at room temperature, washed twice, incubated with Alexa Fluor® 488 IgG fragment-specific detection antibody for 15 minutes in the dark at room temperature, washed once and finally resuspended in FACS buffer. Samples were analyzed using an Intellicyt iQue™ Screener Platform. FACS buffer supplemented with 1 mM Calcium Chloride was used in all steps. […] In this assay method, the antibody binding signal correlates with antibody affinity. Antibody binding data for a representative antigen coating concentration that fell in the linear range of the instrument signal detection is shown in Table 7.2. The degree of antibody binding to the target (ASGR-1) correlates with the measured fluorescent intensity and thus allows a relative comparison of affinities across the panel.

Mouse ASGR-1 = biological target: T4, Mouse ASGR-1 (mouse, UniProt P34927 1-284); assay: FACS on transfected HEK 293 cells or membrane preps on beads; binding = signal at least 2x irrelevant IgG
T4 construct: Expressed on HEK 293 cells or as membrane prep on beads; cDNA GenBank BC022106.1; also called muASGR-1; mASGR-1
T4 sequence: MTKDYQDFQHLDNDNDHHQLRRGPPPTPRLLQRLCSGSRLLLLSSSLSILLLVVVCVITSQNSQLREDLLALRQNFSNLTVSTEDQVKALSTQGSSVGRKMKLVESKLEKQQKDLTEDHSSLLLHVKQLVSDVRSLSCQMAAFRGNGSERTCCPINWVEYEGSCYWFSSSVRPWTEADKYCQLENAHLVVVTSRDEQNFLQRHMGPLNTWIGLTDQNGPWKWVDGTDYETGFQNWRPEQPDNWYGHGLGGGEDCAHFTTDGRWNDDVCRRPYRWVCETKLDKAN
Description: (§1) Human ASGR-1-specific, ligand competing antibody samples were tested for binding to ASGR-1 from other species (cynomologus monkey ASGR-1, mouse ASGR-1, rat ASGR-1, dog ASGR-1, and pig ASGR-1) as well as to human ASGR-2 in FACS binding assays at normalized antibody concentrations. For cell-based assays, HEK 293 cells expressing the appropriate antigen of interest were mixed with antibody sample or controls, incubated for 1 hour at 4° C., and then washed twice. Cells with bound antibody were then incubated with Alexa Fluor® 647 IgG Fc fragment-specific detection antibody and 7-AAD viability stain for 15 minutes at 4° C., washed once and resuspended in FACS buffer. Samples were analyzed using a BD Accuri™ Flow Cytometer and an Intellicyt HyperCyt Autosampler. As a negative control, supernatants and controls were also screened against HEK 293 cells transfected with empty parental vector. […] For membrane-prep binding assays, ASGR-1 species specific membrane preps were used to coat LumAvidin® microspheres (beads) and tested for binding to selected hybridoma supernatants or controls. Briefly, ASGR-1 species specific membrane preps were incubated with streptavidin-coated LumAvidin® beads for 45 minutes in the dark at room temperature and washed twice. Beads were resuspeneded in FACS buffer containing Stabilguard®. Antigen-bound beads were then incubated with normalized antibody sample for 1 hour in the dark at room temperature, washed twice, incubated with Alexa Fluor® 488 IgG Fc fragment-specific detection antibody for 15 minutes in the dark at room temperature, washed once and finally resuspended in FACS buffer. Samples were analyzed using an Intellicyt iQue™ Screener Platform. FACS buffer supplemented with 1 mM Calcium Chloride was used in all steps. As a negative control, supernatants and controls were also screened against a non-ASGR-1 antigen membrane prep coated on the LumAvidin® beads.

Human ASGR-2 = biological target: T5, Human ASGR-2 (human, UniProt P07307 1-311); assay: FACS on transfected HEK 293 cells; Y = signal at least 2x irrelevant IgG
T5 construct: Expressed on HEK 293 cells; cDNA GenBank NM_080913.3; also called huASGR-2; hASGR-2
T5 sequence: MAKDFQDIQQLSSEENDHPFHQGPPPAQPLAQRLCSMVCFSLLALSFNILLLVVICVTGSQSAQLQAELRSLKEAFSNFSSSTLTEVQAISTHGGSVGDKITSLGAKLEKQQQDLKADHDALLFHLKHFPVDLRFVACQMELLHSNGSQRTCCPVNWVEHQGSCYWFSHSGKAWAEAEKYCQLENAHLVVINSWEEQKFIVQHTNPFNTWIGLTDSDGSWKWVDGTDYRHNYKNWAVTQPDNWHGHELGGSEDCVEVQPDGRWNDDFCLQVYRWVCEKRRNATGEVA
Description: as §1, with “Antigen-bound beads were then incubated with normalized antibody sample for 1 hour in the dark at room temperature, washed twice, incubated with Alexa Fluor® 488 IgG Fc fragment-specific detection antibody for 15 minutes in the dark at room temperature, washed once and finally resuspended in FACS buffer.” left out, “FACS buffer supplemented with 1 mM Calcium Chloride was used in all steps. As a negative control, supernatants and controls were also screened against a non-ASGR-1 antigen membrane prep coated on the LumAvidin® beads.” left out

Dog ASGR-1 = biological target: T6, Dog ASGR-1 (dog); assay: FACS on transfected HEK 293 cells or membrane preps on beads; Y = signal at least 2x irrelevant IgG
T6 construct: Expressed on HEK 293 cells or as membrane prep on beads; cDNA GenBank XM_546579
T6 chain: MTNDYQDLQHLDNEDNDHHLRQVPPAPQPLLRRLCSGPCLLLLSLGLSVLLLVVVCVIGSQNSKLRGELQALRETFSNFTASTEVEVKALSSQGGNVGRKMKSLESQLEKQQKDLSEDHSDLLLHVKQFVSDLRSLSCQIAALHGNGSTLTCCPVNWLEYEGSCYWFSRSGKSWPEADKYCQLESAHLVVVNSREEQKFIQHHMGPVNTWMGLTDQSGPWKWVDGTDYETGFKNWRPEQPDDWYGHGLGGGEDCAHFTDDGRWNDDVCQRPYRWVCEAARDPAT
Description: as §1

Cyno ASGR-1 = biological target: T7, Cyno ASGR-1 (cynomolgus monkey, UniProt P07306 1-291 (human entry)); assay: as above
T7 construct: Expressed on HEK 293 cells or as membrane prep on beads; cDNA from XP_005582755; also called cynomologus monkey ASGR-1
T7 chain: T2 sequence with R22G, P30S, Q33R, S64A, E68R, F77L, T152A
Description: as §1

Pig ASGR-1 = biological target: T8, Pig ASGR-1 (pig); assay: as above
T8 construct: Expressed on HEK 293 cells or as membrane prep on beads; cDNA GenBank NM_001244458
T8 chain: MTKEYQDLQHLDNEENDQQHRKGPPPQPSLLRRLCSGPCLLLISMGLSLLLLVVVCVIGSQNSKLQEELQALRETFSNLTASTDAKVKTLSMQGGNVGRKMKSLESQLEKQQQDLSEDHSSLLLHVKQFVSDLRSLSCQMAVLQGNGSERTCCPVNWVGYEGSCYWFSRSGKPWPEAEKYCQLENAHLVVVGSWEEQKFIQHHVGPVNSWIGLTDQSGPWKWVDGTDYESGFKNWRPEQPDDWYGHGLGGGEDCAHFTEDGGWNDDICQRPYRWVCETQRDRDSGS
Description: as §1

B1: 194C10 Fab (Fab, V domains shown)
VH: QVQLQQWGAGLLKPSETLSLTCAVSGGSFRYYYWSWIRQPPGKGLEWFGEINHAGSTNYNPSLKSRVTISIDTSKNQFSLKLRSVTAADTAVYYCARDYGAFDIWGQGTMVTVSS
VL: EIVLTQSPGTLSLSPGERATLSCRASPSVNSGYLAWYQQKPGQTPRLLIFGASSRATGIPDRFSASGSGADFTLTISRLEPEDFAVYFCQQYESSPWTFGQGTKVEIKR
notes: also called Fab fragment of 194C10
binding result [1]: binds

B2: 4A2 Fab (Fab, V domains shown)
VH: QVQLVQSGTEVKKPGASVKVSCKASGYTFTNYDINWVRQATGQGLEWMGWMHPNSGNTGYAQKFQGRVTLTRDTSISTAYMELSSLRSEDTAVYYCASSSGWYYFDYWGQGTLVTVSS
VL: DIVMTQSPDSLAVSLGERATINCKSSQSILHSSNNNNYLAWFQQKPGQPPKLLLYWASTRESGVPDRFSGSGSGTDFTLTISSLQPEDVAVYYCQQYYNTPVTFGPGTKVGIKR
notes: Expressed directly as a Fab, with a double stop codon at the end of the CH1 domain; also called Fab fragment of 4A2
binding result [2]: binds

B3: desialylated, biotinylated asialofetuin (bovine fetuin, AHSG) (ligand, UniProt P12763 19-359, looked up)
chain: IPLDPVAGYKEPACDDPDTEQAALAAVDYINKHLPRGYKHTLNQIDSVKVWPRRPTGEVYDIEIDTLETTCHVLDPTPLANCSVRQQTQHAVEGDCDIHVLKQDGQFSVLFTKCDSSPDSAEDVRKLCPDCPLLAPLNDSRVVHAVEVALATFNAESNGSYLQLVEISRAQFVPLPVSVSVEFAVAATDCIAKEVVDPTKCNLLAEKQYGFCKGSVIQKALGGEDVRVTCTLFQTQPVIPQPQPDGAEAEAPSAVPDAAGPTPSAAGPPVASVVVGPSVVAVPLPLHRAHYDLRHTFSGVASVESSSGEAFHVGKTPIVGQPSIPGGPVRLCPGRIRYFKI
modifications: desialated with C. perfringens and A. ureafaciens neuraminidases; biotinylated with Innolink Biotin 354S
notes: also called bn-asialofetuin; protein ligand
EC50 [3]: 10.7 nM

B4: 22G5 Fab (Fab, V domains shown)
VH: EVQLLESGGGLVQPGGSLRLSCAASGFTFSSYAMNWVRQAPGMGLEWVSVISRSGGYTYYADSVKGRFTISRDNSKNTLYLQMNSLRAEDTAVYYCASRLAVAGSEAFDIWGQGTLVTVSS
VL: DIQMTQSPSSLSASVGDRVTITCRASQNISSYLNWYQQKQGKAPKLLIYAASSLQNGVPSRFSGRGSGTDFTLTISSLQPEDFATYYCQQSYRTPLFTFGPGTKVDFK
modifications: N-acetylglucosamine (NAG100) is listed among the light chain boundary residues
notes: Made by cleaving the 22G5-IgG4 mAb with papain; also called Fab fragment of 22G5
binding result [4]: binds

B5: 7F4 (antibody, V domains shown)
VH: QLQLQESGPGLVKPSETLSLTCTVSGGSISRSSYYWGWIRQPPGKGLEWIGNIYYSGATYYNPSLKSRVTISVDTSTNQFSLKLSSVTAADTAVYYCARHSGSWSLDYWGQGTLVTVSS
VL: DIQMTQSPSSLSASVGDRVTITCRTSQGIRNDLGWYQQKPGKAPKRLIYAASNLQSGVPSRFSGSGSGTEFTLTISSLQPEDFATYYCLQHSAYPLTFGGGTKVEIK
notes: Tested as hybridoma supernatant at normalized concentration
FACS Geomean (Soluble ASGR-1): 4910 FACS Geomean
binding result (Mouse ASGR-1): no binding
binding result (Human ASGR-2): binds
binding result (Dog ASGR-1): binds
binding result (Cyno ASGR-1): binds
binding result (Pig ASGR-1): binds
